Consider 33 molecules from publication PMC11417369, “DNA sequence and chromatin differentiate sequence-specific transcription factor binding in the human malaria parasite Plasmodium falciparum”.

T1: HDP1 homeodomain-like (Plasmodium falciparum, UniProt Q8IKH4 2990-3078)
T1 sequence: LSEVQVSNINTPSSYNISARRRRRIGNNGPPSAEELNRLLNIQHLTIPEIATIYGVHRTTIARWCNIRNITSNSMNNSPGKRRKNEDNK

T2: SIP2 D1 (Plasmodium falciparum, UniProt C6KSN9 177-235)
T2 sequence: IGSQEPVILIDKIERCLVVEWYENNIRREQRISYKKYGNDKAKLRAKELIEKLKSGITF

B1: GTGCAC_site9478 (dsDNA)
DNA 1: ATATTATATTGGATGTTGCACTTAACAAAAGGATAT
DNA 2: ATATCCTTTTGTTAAGTGCAACATCCAATATAATAT
B2: GTGCAC_site9629 (dsDNA)
DNA 1: ATATCAAATAATTTAGTGCACTTTTTTTTTTCTTTT
DNA 2: AAAAGAAAAAAAAAAGTGCACTAAATTATTTGATAT
B3: GTGCAC_negctrl_site175 (dsDNA)
DNA 1: AAAATGTATGGAATGCTCTTTTTTAAGTATTATATA
DNA 2: TATATAATACTTAAAAAAGAGCATTCCATACATTTT
B4: GTGCAC_site10685 (dsDNA)
DNA 1: TTATATTTCACAAATGTGCACAGATACATATATATA
DNA 2: TATATATATGTATCTGTGCACATTTGTGAAATATAA
B5: GTGCAC_site9591 (dsDNA)
DNA 1: ACATATTATATATGTGTGCACATATATATATATTTA
DNA 2: TAAATATATATATATGTGCACACATATATAATATGT
B6: GTGCAC_negctrl_site13 (dsDNA)
DNA 1: AAAAAAAAAAATATATTAAAATAAAAAATATTAACA
DNA 2: TGTTAATATTTTTTATTTTAATATATTTTTTTTTTT
B7: GTGCAC_site10033 (dsDNA)
DNA 1: TTATAAAATTACTTGGTGCATTAGAATATTTCAATA
DNA 2: TATTGAAATATTCTAATGCACCAAGTAATTTTATAA
B8: GTGCAC_negctrl_site305 (dsDNA)
DNA 1: ATTTATATAAAATTAAAATAATACAAATTTATTCAT
DNA 2: ATGAATAAATTTGTATTATTTTAATTTTATATAAAT
B9: GTGCAC_negctrl_site342 (dsDNA)
DNA 1: TATTTATATAATCCTATAATATTACTACTATCTTTA
DNA 2: TAAAGATAGTAGTAATATTATAGGATTATATAAATA
B10: GTGCAC_site9829 (dsDNA)
DNA 1: GAACGAAATAAGTGTGTGCACATGTAACCACAAATC
DNA 2: GATTTGTGGTTACATGTGCACACACTTATTTCGTTC
B11: GTGCAC_site9920 (dsDNA)
DNA 1: ATAATTATATGATGAGTGCACAATAAAAATATCGTT
DNA 2: AACGATATTTTTATTGTGCACTCATCATATAATTAT
B12: GTGCAC_site9679 (dsDNA)
DNA 1: TTTCTTTAATATATAGTGCATGTAAATTTTACAATA
DNA 2: TATTGTAAAATTTACATGCACTATATATTAAAGAAA
B13: GTGCAC_site10292 (dsDNA)
DNA 1: ATAATATGTTATTAAGTGCATATTAATTATTATTAT
DNA 2: ATAATAATAATTAATATGCACTTAATAACATATTAT
B14: GTGCAC_site10017 (dsDNA)
DNA 1: ATATATACTATAATAGTGCATTAAAAAAGTAAAAAT
DNA 2: ATTTTTACTTTTTTAATGCACTATTATAGTATATAT
B15: GTGCAC_site9796 (dsDNA)
DNA 1: ATATATATATATATAGTGCAAATAAAAAATAGACAA
DNA 2: TTGTCTATTTTTTATTTGCACTATATATATATATAT
B16: GTGCAC_site9965 (dsDNA)
DNA 1: AAGAACAAATATGAGGTGCAACACAATATATTATTA
DNA 2: TAATAATATATTGTGTTGCACCTCATATTTGTTCTT
B17: GTGCAC_site9772 (dsDNA)
DNA 1: TATATTATCAAAATGGTGCAATAATTTCTATATTAT
DNA 2: ATAATATAGAAATTATTGCACCATTTTGATAATATA
B18: GTGCAC_negctrl_site257 (dsDNA)
DNA 1: TGCAAAAAAAAAAAAAAAAAATATATGGAAATATAT
DNA 2: ATATATTTCCATATATTTTTTTTTTTTTTTTTTGCA
B19: GTGCAC_negctrl_site298 (dsDNA)
DNA 1: TTTTAACAAAACTAAATAATCATATATATAAGATAT
DNA 2: ATATCTTATATATATGATTATTTAGTTTTGTTAAAA
B20: GTGCAC_negctrl_site27 (dsDNA)
DNA 1: ACATATGTATGAATATCAAAAAATCCCTATTTAATG
DNA 2: CATTAAATAGGGATTTTTTGATATTCATACATATGT
B21: GTGCAC_site9574 (dsDNA)
DNA 1: ATCATATTTATGTTGGTGCATTATACATAAAGTTTA
DNA 2: TAAACTTTATGTATAATGCACCAACATAAATATGAT
B22: GTGCAC_negctrl_site177 (dsDNA)
DNA 1: TCACAAAAAGAACATTGATATTATTATAAAATCGTC
DNA 2: GACGATTTTATAATAATATCAATGTTCTTTTTGTGA
B23: GTGCAC_site9967 (dsDNA)
DNA 1: ACATCGATTTATATTCTGCACTGAAGAAACTACAAC
DNA 2: GTTGTAGTTTCTTCAGTGCAGAATATAAATCGATGT
B24: GTGCAC_negctrl_site154 (dsDNA)
DNA 1: AATAGTATTCACAAAGTTTTATATAATAAATATAAA
DNA 2: TTTATATTTATTATATAAAACTTTGTGAATACTATT
B25: GTGCAC_site10741 (dsDNA)
DNA 1: AAACAAAACAACTAAGTGCATAAAAATAAAATAAAT
DNA 2: ATTTATTTTATTTTTATGCACTTAGTTGTTTTGTTT
B26: GTGCAC_site10284 (dsDNA)
DNA 1: TTCTCCTAATAGTTAGTGCACTACATAACTAAGAAA
DNA 2: TTTCTTAGTTATGTAGTGCACTAACTATTAGGAGAA
B27: GTGCAC_site10491 (dsDNA)
DNA 1: TAGTGATATAATTATGTGCACTTAATACAGGTCGAT
DNA 2: ATCGACCTGTATTAAGTGCACATAATTATATCACTA
B28: GTGCAC_site10780 (dsDNA)
DNA 1: TACAGTTCAATGAAGGTGCAATTAATATATAAAATA
DNA 2: TATTTTATATATTAATTGCACCTTCATTGAACTGTA
B29: GTGCAC_site9798 (dsDNA)
DNA 1: ATCATATGTATGGTGGTGCATTATGCATGAATTTTA
DNA 2: TAAAATTCATGCATAATGCACCACCATACATATGAT
B30: GTGCAC_negctrl_site614 (dsDNA)
DNA 1: TATTTAGACATAACAAATAGACTAACAAAAGATTTA
DNA 2: TAAATCTTTTGTTAGTCTATTTGTTATGTCTAAATA
B31: GTGCAC_site9541 (dsDNA)
DNA 1: ATGAGTAACATATTTGTGCACATATGGTTATTTTTA
DNA 2: TAAAAATAACCATATGTGCACAAATATGTTACTCAT
B32: GTGCAC_negctrl_site138 (dsDNA)
DNA 1: AAAAACAATCATTTTAAATAAAAATCTCTAATTTAA
DNA 2: TTAAATTAGAGATTTTTATTTAAAATGATTGTTTTT
B33: GTGCAC_site9569 (dsDNA)
DNA 1: TATTTGTATATATGTGTGCACGTATAATCCATTAAA
DNA 2: TTTAATGGATTATACGTGCACACATATATACAAATA

For the first data set, the target named is T1, HDP1 homeodomain-like. Description: gcPBM; about 25 ug protein; PBS, 1% milk, 0.2 mg/ml BSA, salmon testes DNA, 0.03% Triton X-100. The following applies: tags: N-terminal GST (pGEX-4T-1), kept; chain copies: 2; label: surface-attached array probe.
As to B1, the binding signal was 8.41 ln median PBM intensity, better of two orientations.
Turning to B2, the binding signal is 10.8 ln median PBM intensity, better of two orientations.
Regarding B3, the binding signal is 6.2 ln median PBM intensity, better of two orientations.
Same read-out and setting: the same measure for B4: 11.1 ln median PBM intensity, better of two orientations; for B5: 9.98 ln median PBM intensity, better of two orientations.
B6: the binding signal is 6.05 ln median PBM intensity, better of two orientations.
For the molecule B7, the binding signal is 11.1 ln median PBM intensity, better of two orientations.
B8: the binding signal is 6.1 ln median PBM intensity, better of two orientations.
The same measure, in the same setting: under B9 stands 6.28 ln median PBM intensity, better of two orientations.
The same measure, in the same setting: under B10 stands 9.93 ln median PBM intensity, better of two orientations; under B11, 9.38 ln median PBM intensity, better of two orientations.
The same measure, in the same setting: under B12 stands 8.12 ln median PBM intensity, better of two orientations.
Regarding B13, the binding signal is 9.18 ln median PBM intensity, better of two orientations.
With B14, the binding signal was 9.53 ln median PBM intensity, better of two orientations.
Same read-out and setting: the same measure for B15: 10 ln median PBM intensity, better of two orientations; for B16: 10.2 ln median PBM intensity, better of two orientations; for B17: 10 ln median PBM intensity, better of two orientations.
Still for that read-out and setting: the same measure for B18: 6.13 ln median PBM intensity, better of two orientations.
On to B19, for which the binding signal is 6.21 ln median PBM intensity, better of two orientations.
On the same count and under the same terms, under B20 stands 6.3 ln median PBM intensity, better of two orientations; under B21, 10.4 ln median PBM intensity, better of two orientations.
As for B22, the binding signal is 6.14 ln median PBM intensity, better of two orientations.
Turning to B23, the binding signal is 7.69 ln median PBM intensity, better of two orientations.
Same read-out and setting: the same measure for B24: 5.94 ln median PBM intensity, better of two orientations; for B25: 8.67 ln median PBM intensity, better of two orientations.
Still for that read-out and setting: under B26 stands 11.1 ln median PBM intensity, better of two orientations; under B27, 11.1 ln median PBM intensity, better of two orientations; under B28, 9.1 ln median PBM intensity, better of two orientations.
Still for that read-out and setting: under B29 stands 10.4 ln median PBM intensity, better of two orientations; under B30, 6.13 ln median PBM intensity, better of two orientations.
In the case of B31, the binding signal was 11.1 ln median PBM intensity, better of two orientations.
B32: the binding signal is 5.6 ln median PBM intensity, better of two orientations.
The same measure, in the same setting: the same measure for B33: 9.32 ln median PBM intensity, better of two orientations.

The next data set addresses T2, SIP2 D1. Described as above. The following applies: tags: N-terminal GST (pGEX-4T-1), kept; label: surface-attached array probe.
Turning to B33, the binding signal is 11.3 ln median PBM intensity, better of two orientations.

A further data set addresses AP2-I D3 (Plasmodium falciparum, UniProt Q8IJW6 910-1027). Described as above. The following applies: tags: N-terminal GST (pGEX-4T-1), kept; label: surface-attached array probe.
With B1, the binding signal is 9.38 ln median PBM intensity, better of two orientations.
Same read-out and setting: the same measure for B2: 12 ln median PBM intensity, better of two orientations; for B3: 6.96 ln median PBM intensity, better of two orientations; for B4: 10.1 ln median PBM intensity, better of two orientations.
The same measure, in the same setting: under B5 stands 9.12 ln median PBM intensity, better of two orientations; under B6, 6.95 ln median PBM intensity, better of two orientations.
Same read-out and setting: the same measure for B7: 12.1 ln median PBM intensity, better of two orientations; for B8: 7 ln median PBM intensity, better of two orientations; for B9: 6.86 ln median PBM intensity, better of two orientations.
As for B10, the binding signal is 9.08 ln median PBM intensity, better of two orientations.
The same measure, in the same setting: the same measure for B11: 11.2 ln median PBM intensity, better of two orientations; for B12: 9.43 ln median PBM intensity, better of two orientations.
Still for that read-out and setting: under B13 stands 9.72 ln median PBM intensity, better of two orientations; under B14, 12 ln median PBM intensity, better of two orientations.
The same measure, in the same setting: under B15 stands 11.2 ln median PBM intensity, better of two orientations; under B16, 9.55 ln median PBM intensity, better of two orientations.
Regarding B17, the binding signal is 12 ln median PBM intensity, better of two orientations.
For B18, the binding signal was 6.92 ln median PBM intensity, better of two orientations.
Take B19: the binding signal is 6.97 ln median PBM intensity, better of two orientations.
With B20, the binding signal is 6.97 ln median PBM intensity, better of two orientations.
Same read-out and setting: under B21 stands 12.1 ln median PBM intensity, better of two orientations; under B22, 7 ln median PBM intensity, better of two orientations.
As to B23, the binding signal is 9.3 ln median PBM intensity, better of two orientations.
Still for that read-out and setting: the same measure for B24: 6.96 ln median PBM intensity, better of two orientations.
As to B25, the binding signal is 10.7 ln median PBM intensity, better of two orientations.
For B26, the binding signal is 12.4 ln median PBM intensity, better of two orientations.
On the same count and under the same terms, under B27 stands 11.1 ln median PBM intensity, better of two orientations; under B28, 11.1 ln median PBM intensity, better of two orientations.
Still for that read-out and setting: under B29 stands 12 ln median PBM intensity, better of two orientations; under B30, 6.94 ln median PBM intensity, better of two orientations; under B31, 10.4 ln median PBM intensity, better of two orientations.
With B32, the binding signal was 6.74 ln median PBM intensity, better of two orientations.
